Source: patent US20190031762A1, “POSTERIOR OCULAR FIBROSIS INHIBITION BY ANTAGONIZING PLACENTAL GROWTH FACTOR” (THROMBOGENICS NV, priority 2016, published 2019)

What was measured:
[1] = target: T1, murine PlGF (Mus musculus, UniProt P49764); assay: Binding of antibody to murine PlGF
T1 sequence (P49764 19-158): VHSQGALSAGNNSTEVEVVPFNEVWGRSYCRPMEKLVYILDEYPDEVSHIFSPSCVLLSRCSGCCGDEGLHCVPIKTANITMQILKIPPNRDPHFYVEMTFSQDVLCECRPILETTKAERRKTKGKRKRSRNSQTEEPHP

[2] = target: T2, human PlGF (Homo sapiens, UniProt P49763); assay: Binding of antibody to human PlGF
T2 sequence (P49763 19-131 limits assumed): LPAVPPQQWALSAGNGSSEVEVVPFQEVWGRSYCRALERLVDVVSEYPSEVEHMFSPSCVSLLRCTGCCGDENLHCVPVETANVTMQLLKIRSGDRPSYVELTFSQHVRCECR

[3] = tested on: mouse CNV model; assay: Posterior ocular collagen deposition (Col1a staining) in laser-induced CNV mouse model; format: in vivo; conditions: repeat experiment (FIG. 4), day 30, 3.1 μg/eye, compared to PBS
Experimental: Mice (C57BL/6J, male, 8-10 weeks old) were anesthetized by intraperitoneal injection (135 μL) of a mixture of ketamine hydrochloride (Anesketin; […]) and medetomidine (Domitor; 1 mg/mL) and their pupils dilated with one eye drop (50 μL) Tropicamide (Tropicol™; 5 mg/mL; Thea, Research Papers Clermont-Ferrand, France). Three laser burns were placed in one eye with a green laser at the 9, 12, 3 o'clock positions around the optic disk using a slit lamp delivery system with a hand-held cover slide as a contact lens moisturized with Genteal Gel™ (Novartis, Vilvoorde, Belgium). Each spot was placed with a spot size of 100 μm, laser duration of a 50 milliseconds and a power of 320 mW. […] Finally, 300 μL atipamezole (Antisedan; 5 mg/mL) was injected intraperitoneally to reverse the effect of medetomidine and to reduce sedation time.
At different time points after lasering, the compounds were administered intravitreally (IVT). The animal was anesthetized with a mixture of ketamine hydrochloride/medetomidine and the eye was treated with a drop of 0.4% oxybuprocaine (Unicaine; Thea Pharma). Intravitreal injections (1 μL) to one eye according to Tables 1 to 3 were performed by using an analytic science syringe (SGE Analytic Science) and glass capillaries with a diameter of 50-70 μm at the end, controlled by the UMP3I Microsyringe Injector and Micro4 Controller (all from World Precision Instruments Inc., Hertfordshire, UK). Finally, atipamezole (Antisedan) was injected intraperitoneally to reverse the effect of medetomidine and to reduce sedation time.
To analyze the in vivo efficacy of the different compounds, the retina was removed from the dissected posterior segments. These posterior eye cups, which included retinal pigment epithelium (RPE), the choroid and the sclera were stored in phosphate buffered saline (PBS).
To stain for the presence of collagen type 1 (Colla) protein in the laser spots at day 30 after laser, a rabbit anti-collagen antibody (Abcam, 1/270) was used overnight, diluted in Tris-buffered saline (TBS)-Triton 0.5% (v/v) at 4° C. The following day, the tissues were incubated for 2 hours with goat anti rabbit IgG Alexa Fluor 555 (Life Technologies; A-21428), diluted 1/100 in TBS-Triton 0.3% (v/v) at 4° C. The flat mounts of the posterior eye cups were mounted with Prolong Gold with 4′,6-diamidino-2-phenylindole (DAPI, Molecular Probes). Images were obtained using a microscope with a digital camera (Axiocam MrC5; Carl Zeiss, Oberkochen, Germany) at a magnification factor of 20. Morphometric analyses were performed using commercial software (Axiovision; Zeiss, Oberkochen, Germany). The density of collagen deposition was determined by calculating the Colla-positive area as a proportion of the total lesion.
The mouse CNV model as described in Example 2.1 was used. At different time points after lasering, compounds were administered intraperitoneally (IP), or intravitreally (IVT), as indicated in Table 3.

B1: 16D3: murine anti-human PlGF-neutralizing antibody, CDRs SEQ ID NOs:1-6; hybridoma deposit LMBP 6399CB (antibody, V domains shown)
VH: QVQLQQSGAELVKPGASVKISCKASGYTFTDYYINWVKLAPGQGLEWIGWIYPGSGNTKYNEKFKGKATLTIDTSSSTAYMQLSSLTSEDTAVYFCVRDSPFFDYWGQGTLLTVSS
VL: DIVLTQSPDSLAVSLGERVTMNCKSSQSLLNSGMRKSFLAWYQQKPGQSPKLLIYWASTRESGVPDRFTGSGSGTDFTLTISSVQAEDVAVYYCKQSYHLFTFGSGTKLEIK
modifications: humanized heavy chain amino acid sequence of neutralizing anti-PlGF antibody; humanized light chain amino acid sequence of neutralizing anti-PlGF antibody
notes: hybridoma deposit LMBP 6399CB
affinity for murine PlGF relative to human PlGF, in words [1]: lower affinity | binding to human PlGF, in words [2]: binds | effect on collagen deposition / fibrosis, in words [3]: significantly decreased collagen deposition | reduction in collagen deposition (Col1a) ([3]; IVT D0, 4, 10 and 20): 34%
